Experimental data taken from paper PMC5897841, “Development of a multipurpose scaffold for the display of peptide loops” (Protein Engineering, Design and Selection, 2017).

Tests used:
[1] = biological target: T1, CK2α kinase (Homo sapiens, UniProt P68400); assay: Analytical SEC, CK2α / RAD-CK2β; assay type: binding; details: Superdex 75 5/150, 20 mM HEPES pH 7.5, 500 mM NaCl, calibrated
T1 construct: made in house; host or cells: E. coli BL21(DE3) with pUBS520; pBAT4 plasmid
T1 sequence (P68400 2-329): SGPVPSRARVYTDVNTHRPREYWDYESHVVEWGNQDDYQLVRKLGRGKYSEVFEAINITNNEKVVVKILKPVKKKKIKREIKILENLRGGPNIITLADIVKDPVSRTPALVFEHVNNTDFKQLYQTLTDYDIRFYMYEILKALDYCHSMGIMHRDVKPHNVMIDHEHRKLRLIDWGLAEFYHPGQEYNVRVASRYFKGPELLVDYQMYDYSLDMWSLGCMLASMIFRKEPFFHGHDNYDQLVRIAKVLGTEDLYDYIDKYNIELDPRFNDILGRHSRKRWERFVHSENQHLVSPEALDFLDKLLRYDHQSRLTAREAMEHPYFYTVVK
Experimental: Purified protein samples, either as individual proteins or equimolar mixtures, were separated by analytical SEC over an Superdex 75 5/150 size exclusion column (GE Healthcare) equilibrated with 20 mM HEPES pH 7.5, 500 mM NaCl. Fractions from the peaks from each run were analyzed by SDS-PAGE with purified proteins as standards. The column was calibrated using molecular weight standards (blue dextran, bovine serum albumin, carbonic anhydrase, cytochrome C and aprotonin, Sigma-Aldrich cat. MWGF70) and the calibration curve used to estimate the molecular weights of the three samples (Fig. S5).
Figure S5. MW estimation of CK2α, RAD-CK2β(186-200) and their complexes by SEC Calibration Superdex 75 5/150 HR column
Figure S5. Molecular weight protein standards (Sigma -Aldrich, cat. no. MWGF70, gray diamonds in the plot) were used to calibrate Superdex 75 5/150 column. Blue dextran was used to define the void volume (1.24 ml)and total volume was assumed to be […]. Elution positions of CK2α,(blue […]
main article, were used to estimate the molecular weights of the proteins from the calibration curve. […]

[2] = biological target: T1, CK2α kinase; assay: Sedimentation velocity AUC, CK2α / RAD-CK2β; assay type: binding; details: 20°C, 20 mM HEPES pH 7.5, 500 mM NaCl

Sedimentation coefficient (s-value) ([2]; SV AUC, 50 000 rpm, 280 nm, CK2α 6 μM, RAD-CK2β 14.3 μM, complex 5 μM each): 3.0 S
Molar mass from SV AUC ([2]; boundary spreading): 41.5 kDa
B1: CK2α kinase: Human CK2α kinase (residues 2-329) (protein)
chain: SGPVPSRARVYTDVNTHRPREYWDYESHVVEWGNQDDYQLVRKLGRGKYSEVFEAINITNNEKVVVKILKPVKKKKIKREIKILENLRGGPNIITLADIVKDPVSRTPALVFEHVNNTDFKQLYQTLTDYDIRFYMYEILKALDYCHSMGIMHRDVKPHNVMIDHEHRKLRLIDWGLAEFYHPGQEYNVRVASRYFKGPELLVDYQMYDYSLDMWSLGCMLASMIFRKEPFFHGHDNYDQLVRIAKVLGTEDLYDYIDKYNIELDPRFNDILGRHSRKRWERFVHSENQHLVSPEALDFLDKLLRYDHQSRLTAREAMEHPYFYTVVK
Molecular weight equivalent of SEC elution volume [1]: 45.7 kDa
